Assay [1] deals with T1, human LAG-3 fused to mouse IgG2a (huLAG-3-mIgG2a) (human, UniProt P18627 23-450).
T1 chain: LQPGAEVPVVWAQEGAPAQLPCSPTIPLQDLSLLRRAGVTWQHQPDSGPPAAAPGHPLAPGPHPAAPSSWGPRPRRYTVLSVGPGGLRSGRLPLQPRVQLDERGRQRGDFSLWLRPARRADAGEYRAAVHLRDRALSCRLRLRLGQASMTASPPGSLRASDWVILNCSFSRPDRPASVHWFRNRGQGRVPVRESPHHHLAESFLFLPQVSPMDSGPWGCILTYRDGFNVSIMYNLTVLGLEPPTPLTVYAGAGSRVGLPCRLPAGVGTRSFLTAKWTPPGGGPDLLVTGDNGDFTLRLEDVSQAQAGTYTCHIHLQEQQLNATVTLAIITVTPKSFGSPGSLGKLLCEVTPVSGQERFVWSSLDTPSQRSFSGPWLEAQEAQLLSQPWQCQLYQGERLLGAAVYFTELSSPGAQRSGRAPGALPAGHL
Kind of assay: cell-based blocking of LAG-3-muFc binding to MHC on Raji cells.

Assay [2] concerns the target His tagged human PD-1 protein (human, UniProt Q15116 25-167). Put plainly: BLI. For orientation: BLI is a label-free optical method that tracks binding on a fibre tip over time.
Assay [3] addresses T2, human TIGIT on transfected CHOK1 cells (human, UniProt Q495A1 22-244).
T2 chain: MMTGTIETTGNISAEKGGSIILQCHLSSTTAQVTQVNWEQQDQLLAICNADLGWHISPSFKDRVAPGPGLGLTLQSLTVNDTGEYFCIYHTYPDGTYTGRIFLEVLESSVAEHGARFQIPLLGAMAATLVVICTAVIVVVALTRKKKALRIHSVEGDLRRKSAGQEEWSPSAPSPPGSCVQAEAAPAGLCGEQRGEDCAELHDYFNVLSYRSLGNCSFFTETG
Kind of assay: cell-based blocking of TIGIT/PVR.

Assay [4] addresses T3, His tagged human TIGIT protein (human, UniProt Q495A1 22-141).
T3 chain: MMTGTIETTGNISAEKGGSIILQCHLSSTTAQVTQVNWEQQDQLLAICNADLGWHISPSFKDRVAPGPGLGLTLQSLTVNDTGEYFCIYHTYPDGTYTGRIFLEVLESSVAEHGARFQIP
Kind of assay: BLI.

In assay [5] the target is T1, human LAG-3 fused to mouse IgG2a …. Kind of assay: cell-based blocking of LAG-3/MHC II.
The target of assay [6] is T3, His tagged human TIGIT protein. Put plainly: sandwich ELISA; simultaneous binding of LAG-3-muFc and His-tagged TIGIT. In general terms: ELISA stands for enzyme-linked immunosorbent assay.
For assay [7], the target named is T4, human LAG-3 on CHO-K1 cells (human, UniProt P18627 23-525).
T4 chain: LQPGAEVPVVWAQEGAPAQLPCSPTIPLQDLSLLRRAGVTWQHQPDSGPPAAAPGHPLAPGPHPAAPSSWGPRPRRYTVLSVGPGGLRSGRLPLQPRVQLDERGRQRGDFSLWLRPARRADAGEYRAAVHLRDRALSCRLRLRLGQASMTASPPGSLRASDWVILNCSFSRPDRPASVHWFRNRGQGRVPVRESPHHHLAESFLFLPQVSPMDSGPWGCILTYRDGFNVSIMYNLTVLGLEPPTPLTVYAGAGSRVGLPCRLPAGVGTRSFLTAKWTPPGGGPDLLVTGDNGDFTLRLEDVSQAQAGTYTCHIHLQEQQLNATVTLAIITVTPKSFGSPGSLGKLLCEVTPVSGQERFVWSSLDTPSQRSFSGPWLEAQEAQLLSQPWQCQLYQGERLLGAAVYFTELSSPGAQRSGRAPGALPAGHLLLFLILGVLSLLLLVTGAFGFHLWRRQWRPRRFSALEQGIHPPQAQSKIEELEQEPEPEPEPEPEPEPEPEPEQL
Put plainly: flow cytometry binding. Background: Flow cytometry measures light scatter and fluorescence of single cells or particles in a stream.

In assay [8] the target is T1, human LAG-3 fused to mouse IgG2a …. Put plainly: SPR.
Assay [9] has as its target T5, His tagged human LAG-3 (human, UniProt P18627 23-450).
T5 chain: T1 chain
Kind of assay: SPR.

Our source for the IC50, Kd and EC50 values is US12404336 (dated 2025).

A word on the IC50: it is the point on the concentration scale where inhibition reaches its midpoint. High values mean a need for much substance, low ones inhibition by little substance. What is called Kd is the equilibrium constant for the complex coming apart. Read a high Kd as lower affinity. Usually EC50 stands for the concentration needed to bring the measured effect to its halfway point. Higher therefore signals lower potency in that assay.

Sequence of His tagged human PD-1 protein (Q15116 25-167): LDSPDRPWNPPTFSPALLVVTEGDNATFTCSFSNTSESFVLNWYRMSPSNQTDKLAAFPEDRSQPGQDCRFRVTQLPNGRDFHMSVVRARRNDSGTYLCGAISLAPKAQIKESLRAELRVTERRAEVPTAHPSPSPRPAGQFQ

B1: chimeric 2L2A antibody (antibody, V domains shown)
VH: EVQLQQSGPVLVKPGASVKMSCKASGYTLTDYYMNWMKQSHGKSLEWIGVINPYNGDTSCNQKFKGKATLTADKSSSTAYMELNSLTSDDSAVYYCVRDDGYYVHYFDYWGQGTTLTVSS
VL: DIQMTQSPSSLSASLGERVTLTCRASQDISSRLTWLQQEPDGTIKRLIYATSSLDSGVPKRFNGSRSGSDYSLTISSLESEDFVDYYCLQYASSPLTFGAGTKLELKR
In assay [1], B1 displayed an IC50 of 3.74 nM.

B2: Bi-TPM-94A (antibody)
chain 1: not shown
chain 2: DIQMTQSPSFLSASVGDRVTITCKASQNVGTNVAWYQQKPGKAPKALIYSASYRYSGVPSRFSGSGSGTEFTLTISSLQPEDFATYYCQQYYSYPYTFGQGTKLEIKRTVAAPSVFIFPPSDEQLKSGTASVVCLLNNFYPREAKVQWKVDNALQSGNSQESVTEQDSKDSTYSLSSTLTLSKADYEKHKVYACEVTHQGLSSPVTKSFNRGEC
In turn, B2 displayed a Kd in assay [2] of 2.9 nM.

B3: Bi-TPM-94B (antibody)
chain 1: not shown
chain 2: B2 chain 2
In assay [3], B3 yielded an IC50 of 0.13 nM. The Kd in assay [4] stood at 1.7 nM; in [2], 2.7 nM.

B4: Bi-LT-1 (antibody)
chain 1: not shown
chain 2: DIQMTQSPSSLSASVGDRVTITCRASQDISSRLTWLQQKPEKAPKRLIYATSSLDSGVPSRFSGSGSGTDFTLTISSLQPEDFATYYCLQYASSPLTFGGGTKVEIKRTVAAPSVFIFPPSDEQLKSGTASVVCLLNNFYPREAKVQWKVDNALQSGNSQESVTEQDSKDSTYSLSSTLTLSKADYEKHKVYACEVTHQGLSSPVTKSFNRGEC
In the case of B4, the IC50 in assay [5] is 0.7 nM; in assay [3] it was 0.24 nM. Further, it took 0.0107 µg/mL to reach a half-maximal effect in assay [6] (EC50).

B5: Bi-LT-3 (antibody)
chain 1: not shown
chain 2: B4 chain 2
For B5, the IC50 was 0.9 nM in assay [5] and 0.22 nM in assay [3]. In [6], a half-maximal effect (EC50) was put at 0.0108 µg/mL.

B6: 2L2A.1 (antibody, V domains shown)
VH: QVQLVQSGAEVKKPGASVKVSCKASGYTLTDYYMNWMRQAPGQGLEWMGVINPYNGDTSYNQKFKGRVTMTRDTSTSTVYMELSSLRSEDTAVYYCVRDDGYYVHYFDYWGQGTLVTVSS
VL: DIQMTQSPSSLSASVGDRVTITCRASQDISSRLTWLQQEPEKAPKRLIYATSSLDSGVPKRFSGSGSGTDFTLTISSLQPEDFATYYCLQYASSPLTFGGGTKVEIK
B6: it took 1.48 nM to reach a half-maximal effect in assay [7] (EC50). For the same molecule, the values for the Kd in [8] and in assay [9] were 0.001 nM and 1.42 nM, respectively. Further, in assay [1], the IC50 was 1.97 nM.
